From article PMC3438448, “Lis1 Acts as a “Clutch” between the ATPase and Microtubule-Binding Domains of the Dynein Motor” (Cell, 2012)

Target: the molecule itself
Experiment: cross-linking; 0.5 μM protein ± 0.05% glutaraldehyde, 5 min, ambient temperature; 30 mM HEPES pH 7.2, 50 mM potassium acetate; SDS-PAGE; control pretreated with 4% LDS

B1: Lis1 (S. cerevisiae Pac1) (natural protein, UniProt P39946 1-494, looked up)
chain: MTNWQQQLPLTDTQKNELDKSVLRYLNWNYKQTVRHEHAQDYESVRHAIVTLSGFLLQESVDRQEFISNNDTSNESMVDIDELLLPKKWNSIVRLQKKIIELEQNTETLVSQIKDLNTQVSELAQFKPTTSNGTSAHNVLKWIPRNLPSCLINVESSVTSVKLHPNLPIVFVATDHGKLYAFDLFNYTIPLASLQSHTKAITSMDVLFTNYTNSSKKNYLVIVTASKDLQIHVFKWVSEECKFQQIRSLLGHEHIVSAVKIWQKNNDVHIASCSRDQTVKIWDFHNGWSLKTFQPHSQWVRSIDVLGDYIISGSHDTTLRLTHWPSGNGLSVGTGHEFPIEKVKFIHFIEDSPEIRFRTPSTDRYKNWGMQYCVSASRDRTIKIWEIPLPTLMAHRAPIPNPTDSNFRCVLTLKGHLSWVRDISIRGQYLFSCADDKSVRCWDLNTGQCLHVWEKLHTGFVNCLDLDVDFDSNVTPRQMMVTGGLDCKSNVFMR
notes: Lis1 ortholog Pac1 (PAC1), S. cerevisiae; also called dimeric Lis1; intact Lis1; source: S. cerevisiae, expressed from the genomic locus, purified (Ni-NTA, IgG sepharose, TEV cleavage)
stoichiometry N: 2
